According to patent publication US20240376207A1 (JIANGSU HENGRUI PHARMACEUTICALS, published 2024):

T1: human TIGIT recombinant protein (human, UniProt Q495A1 22-141, limits assumed)
T1 construct: construct not described; also called human TIGT recombinant protein
T1 sequence (looked up): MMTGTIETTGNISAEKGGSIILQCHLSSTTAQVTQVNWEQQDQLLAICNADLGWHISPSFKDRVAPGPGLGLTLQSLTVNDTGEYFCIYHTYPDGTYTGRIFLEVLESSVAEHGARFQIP

T2: mouse IgG2a Fc-tagged human PVRIG (h-PVRIG-mIgG2a Fc) recombinant protein (human, UniProt Q6DKI7 41-171, limits assumed)
T2 construct: bought from Acrobiosystems; not shown: mouse IgG2a Fc tag
T2 sequence (looked up): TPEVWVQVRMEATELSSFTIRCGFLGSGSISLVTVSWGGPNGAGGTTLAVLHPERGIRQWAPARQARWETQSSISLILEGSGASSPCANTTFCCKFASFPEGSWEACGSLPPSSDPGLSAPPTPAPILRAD

T3: human PVRIG expressed on cells (human, UniProt Q6DKI7 41-326)
T3 sequence (looked up): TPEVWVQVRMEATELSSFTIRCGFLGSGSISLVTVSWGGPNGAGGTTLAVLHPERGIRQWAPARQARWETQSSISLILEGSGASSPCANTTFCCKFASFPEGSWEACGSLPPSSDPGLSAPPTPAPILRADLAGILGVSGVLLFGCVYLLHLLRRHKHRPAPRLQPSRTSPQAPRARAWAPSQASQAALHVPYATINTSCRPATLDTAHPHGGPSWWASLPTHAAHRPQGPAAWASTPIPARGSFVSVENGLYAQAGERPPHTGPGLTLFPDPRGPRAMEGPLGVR

T4: his-tagged human PVRIG (h-PVRIG-his) recombinant protein (human, UniProt Q6DKI7 41-171, limits assumed)
T4 construct: bought from Acrobiosystems; also called Human PVRIG-his; human PVRIG recombinant protein; not shown: his tag
T4 sequence (looked up): T2 sequence (looked up)

B1: humanized anti-PVRIG/TIGIT bispecific antibody 1708-20H5 (bispecific antibody, human IgG4 S228P, kappa)
heavy: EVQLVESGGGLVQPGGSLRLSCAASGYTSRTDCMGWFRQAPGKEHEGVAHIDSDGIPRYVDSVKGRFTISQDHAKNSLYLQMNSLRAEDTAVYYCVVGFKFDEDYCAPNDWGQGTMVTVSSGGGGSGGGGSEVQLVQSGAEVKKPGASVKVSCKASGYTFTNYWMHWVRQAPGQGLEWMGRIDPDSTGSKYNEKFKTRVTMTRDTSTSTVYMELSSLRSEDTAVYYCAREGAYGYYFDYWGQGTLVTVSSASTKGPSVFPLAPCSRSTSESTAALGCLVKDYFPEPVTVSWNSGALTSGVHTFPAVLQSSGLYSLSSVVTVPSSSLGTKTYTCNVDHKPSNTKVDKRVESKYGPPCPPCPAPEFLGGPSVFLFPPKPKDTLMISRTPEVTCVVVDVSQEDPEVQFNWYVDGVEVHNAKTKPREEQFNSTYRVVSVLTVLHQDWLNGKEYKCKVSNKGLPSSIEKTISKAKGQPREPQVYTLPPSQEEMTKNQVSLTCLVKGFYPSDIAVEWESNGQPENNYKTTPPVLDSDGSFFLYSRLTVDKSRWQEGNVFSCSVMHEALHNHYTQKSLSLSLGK
light: DIQMTQSPSSLSASVGDRVTITCRASENIYSYLAWYQQKPGKSPKLLIYNARTLAEGVPSRFSGSGSGTDFTLTISSLQPEDFATYYCQYHSGSPLPFGGGTKVEIKRTVAAPSVFIFPPSDEQLKSGTASVVCLLNNFYPREAKVQWKVDNALQSGNSQESVTEQDSKDSTYSLSSTLTLSKADYEKHKVYACEVTHQGLSSPVTKSFNRGEC
B2: humanized anti-PVRIG/TIGIT bispecific antibody 1708-30H2 (bispecific antibody, human IgG4 S228P, kappa)
heavy: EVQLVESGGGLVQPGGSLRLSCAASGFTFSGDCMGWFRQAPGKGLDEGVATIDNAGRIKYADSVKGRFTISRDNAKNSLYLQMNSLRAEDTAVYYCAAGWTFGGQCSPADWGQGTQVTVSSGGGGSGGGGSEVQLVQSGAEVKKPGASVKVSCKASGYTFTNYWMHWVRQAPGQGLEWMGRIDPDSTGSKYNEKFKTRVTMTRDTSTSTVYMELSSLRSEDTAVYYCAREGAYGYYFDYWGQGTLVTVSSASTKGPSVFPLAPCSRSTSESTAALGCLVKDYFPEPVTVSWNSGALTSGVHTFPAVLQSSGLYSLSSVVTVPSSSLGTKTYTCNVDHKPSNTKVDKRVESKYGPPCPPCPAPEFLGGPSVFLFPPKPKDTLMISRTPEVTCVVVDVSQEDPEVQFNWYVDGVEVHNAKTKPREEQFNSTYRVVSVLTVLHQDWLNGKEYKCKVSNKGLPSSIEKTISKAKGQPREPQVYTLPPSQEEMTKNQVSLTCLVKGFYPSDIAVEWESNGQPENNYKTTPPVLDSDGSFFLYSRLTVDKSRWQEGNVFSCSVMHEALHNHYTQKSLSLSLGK
light: B1 light
B3: positive antibody Tab5 (antibody, human IgG4 S228P, kappa, F234A L235A, V domains shown)
VH: EVQLVESGGGVVKPGGSLRLSCAASGFTFGTSSMNWVRQAPGKGLEWVAVISFDGTEIHYADSVKGRFTISRDNSKSTVFLQMNSLRPDDTALYYCAKGSGNIYFYSGMDVWGQGTTVTVSS
VL: DIQMTQSPSTLSASVGDRVTITCRAGQSISGWLAWFQQKPGKAPNLLIYETSTLESGVPSRFSGSGSGTEYTLTISSLQPDDFATYYCQQYYSYPLTFGQGTKVEIKR
notes: Variable regions of CPA.7.021 (WO2016134333A1) on human IgG4 (S228P/F234A/L235A/K447A) and human kappa constant regions
B4: anti-PVRIG antibody 151 (antibody, human IgG4 S228P, F234A L235A, V domains shown)
VH: HVQLVESGGGSVQAGGSLRLSCVASASGFTYRPYCMAWFRQAPGKEREAVAGIDIFGGTTYADSVKGRFTASRDNAGFSLFLQMNDLKPEDTAMYYCAAGDSPDGRCPPLGQGLNYWGQGTQVTVSS
notes: no light chain
B5: anti-PVRIG antibody 38 (antibody, human IgG4 S228P, F234A L235A, V domains shown)
VH: QVQLVESGGGSVQAGGSLRLSCAASPSTYGPSDMAWFRQAPGKQREGVATISAAGRLTYYTDSVRGRFTISRDNAKNTMYLQMNSLKPEDTAMYYCAADFAGGSSLFADYKYWGQGTQVTVSS
notes: no light chain
B6: anti-PVRIG antibody 39 (antibody, human IgG4 S228P, F234A L235A, V domains shown)
VH: QVQLVESGGGSVQAGGSLRLSCAASRYTSRTDCMGWFRQAPGKEREGVAHIDSDGIPRYVESVKGRFTISQDHAKNTLYLQMNSLKPEDSATYYCVVGFKFGDYCAPNDWGQGTQVTVSS
notes: no light chain
B7: anti-PVRIG antibody 30 (antibody, human IgG4 S228P, F234A L235A, V domains shown)
VH: HVQLVESGGGSVQAGGSLRLSCEASGYSYSGDCMGWFRRAPGKERDEGVATIDNAGRIKYADSVKGRFTISHGNGKYILYLQMNSLKPEDTDMYYCAAGWTFGGNCSPADWGQGTQVTVSS
notes: no light chain

The binders below were run against T1, human TIGIT recombinant protein (assay: ELISA, coated antigen).
Description: (§1) A human, cynomolgus monkey, or mouse PVRIG protein (at a concentration of 1 μg/mL) was coated on a 96-well microplate at 100 μL per well, and incubated overnight at 4° C. The plate was washed three times with wash buffer at 250 μL per well. For each wash, the plate was shaken for 10 s to ensure adequate cleaning. A blocking solution (PBS+0.05% Tween20+1% BSA) was added at 300 μL/well, and the plate was incubated at room temperature for 1 h. The plate was washed three times with wash buffer at 250 μL per well. For each wash, the plate was shaken for 10 s to ensure adequate cleaning. Dilutions of the test anti-PVRIG antibodies were added at 100 μL/well. The plate was incubated at 37° C. for 1 h. The plate was washed three times with wash buffer at 250 μL per well. The […] anti-human IgG secondary antibody (Sigma, A8667) was added at 100 μL per well. The plate was incubated at 37° C. for 1 h. The plate was washed three times with wash buffer at 250 μL per well. TMB was added at 100 μL/well, and the plate was incubated in the dark for 15 min. 0.16 M sulfuric acid was added at 50 μL/well. The OD values at 450 nm were read by using a Thermo MultiSkanFc microplate reader, and the EC₅₀ values of the binding of the anti-PVRIG antibodies to PVRIG were calculated.
(§2) Similarly to Examples 4, 5 and 6, the binding of humanized anti-PVRIG/TIGIT bispecific antibodies to human and cynomolgus monkey TIGIT and blocking of binding of human TIGIT to ligand were detected, where PVRIG protein was replaced with TIGIT and PVRL2 was replaced with PVR.
In the case of B1, the EC50 is reported as 145 pM.
Work on B2 yielded an EC50 of 153 pM.
B3: no binding.

These binders were tested against cynomolgus monkey TIGIT recombinant protein (cynomolgus monkey, UniProt A0A7N9I9V4 89-209) (assay: ELISA, coated antigen).
Sequence of cynomolgus monkey TIGIT recombinant protein (A0A7N9I9V4 entry or part of it): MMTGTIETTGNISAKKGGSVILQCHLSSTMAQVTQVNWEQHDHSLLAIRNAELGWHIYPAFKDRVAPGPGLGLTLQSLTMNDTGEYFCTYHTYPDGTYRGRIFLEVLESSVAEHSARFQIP
Description: as §1, §2
B1 showed an EC50 of 112 pM.
For B2, the EC50 was 114 pM.
B3: no binding.

What follows are binders tested against T2, mouse IgG2a Fc-tagged human PVRIG … (assay: competition ELISA; human PVRIG coated, competitor human PVRL2).
Description: The h-PVRIG-mIgG2a Fc protein (at a concentration of 1 μg/mL) was coated on the 96-well microplate at 100 μL per well, and incubated overnight at 4° C. The plate was washed three times with wash buffer at 250 μL per well. For each wash, the plate was shaken for 10 s to ensure adequate cleaning. A blocking solution was added at 300 μL/well, and the plate was incubated at room temperature for 1 h. The plate was washed three times with wash buffer at 250 μL per well. For each wash, the plate was shaken for 10 s to ensure adequate cleaning. 50 μL of diluted test anti-PVRIG antibody and 50 μL of his-tagged ligand PVRL2 were added to each well, and the plate was incubated at 37° C. for 1 h. The plate was washed three times with wash buffer at 250 μL per well. The HRP-labeled anti-his-tagged secondary antibody (Genscrpit) diluted at 1:2000 was added at 100 μL per well. The plate was incubated at 37° C. for 1 h. The plate was washed three times with wash buffer at 250 μL per well. TMB was added at 100 μL/well, and the plate was incubated in the dark for 15 min. 0.16 M sulfuric acid was added at 50 μL/well. OD values at 450 nm were measured using a Thermo MμtLtiSkanFc microplate reader, and the IC₅₀ values of the anti-PVRIG antibodies blocking the binding of PVRIG to PVRL2 were calculated.
Binding of the humanized anti-PVRIG/TIGIT bispecific antibodies to human and cynomolgus monkey PVRIG and their blocking of the ligand of human PVRIG were detected according to the methods of Examples 4, 5 and 6.
With B1 the IC50 was 628 pM.
B2 gave an IC50 of 552 pM.
With B3 the IC50 was 964 pM.

These binders were tested against T3, human PVRIG expressed on cells (assay: cell-based or functional assay).
For B4, the “PVRIG reporter gene cell activity EC50” value was 40 pM.
For B5, the “PVRIG reporter gene cell activity EC50” value was 200 pM.
In the case of B6, the “PVRIG reporter gene cell activity EC50” value is reported as 60 pM.
In the case of B7, the “PVRIG reporter gene cell activity EC50” value is reported as 60 pM.
B3 was tested, and the “PVRIG reporter gene cell activity EC50” value was 740 pM.

Molecular target: T3, human PVRIG expressed on cells
Assay: cell-based or functional assay
Remark: another data set of the same source
B4 was tested, and the “NK92 killing of K562, killing activity (%), 20 nM antibody” value (“NK92 killing … (%), 20 nM antibody” for short) was 35% and the “NK92 killing of K562, killing activity (%), 100 nM antibody” value (“NK92 killing … (%), 100 nM antibody” for short) was 33%.
With B5 the “NK92 killing … (%), 20 nM antibody” value was 29% and the “NK92 killing … (%), 100 nM antibody” value was 27%.
With B6 the “NK92 killing … (%), 20 nM antibody” value was 32% and the “NK92 killing … (%), 100 nM antibody” value was 30%.
B7 was tested, and the “NK92 killing … (%), 20 nM antibody” value was 36% and the “NK92 killing … (%), 100 nM antibody” value was 39%.
With B3 the “NK92 killing … (%), 20 nM antibody” value was 32% and the “NK92 killing … (%), 100 nM antibody” value was 32%.

The binders below were run against T4, his-tagged human PVRIG (h-PVRIG-his) … (assay: BLI (Fortebio), antibody on Protein A sensor, 1:1 fit).
Description: A Protein A biosensor (Fortebio, #18-5010) was immersed in 200 μL of KB buffer (PBS, pH 7.4, 0.02% tween-20, 0.1% BSA) for 60 s for the wetting treatment. Then, the anti-PVRIG antibody was diluted to 10 μg/mL with the KB buffer, and the sensor was immersed in 200 μL of the solution until the reading was 1.2 nm. The sensor was immersed in the KB buffer for 100 s to elute excess antibody. The his-tagged human PVRIG was diluted in a 2-fold gradient to 64 nM-4 nM with the KB buffer. The sensor was immersed in the solution for 300 s for binding. The sensor was immersed in the KB buffer for 600 s for dissociation. The data were fitted in a dynamic 1:1 binding mode.
B4 was tested, and the Kd was 200 pM, the koff was 5.22e-05 s⁻¹ and the kon was 261000 M⁻¹ s⁻¹.
Binder B5 has a Kd of 2170 pM, a koff of 0.000287 s⁻¹ and a kon of 132000 M⁻¹ s⁻¹.
For B6, the Kd was 696 pM, the koff was 0.000169 s⁻¹ and the kon was 242000 M⁻¹ s⁻¹.
B7 showed a Kd of 723 pM, a koff of 0.000205 s⁻¹ and a kon of 284000 M⁻¹ s⁻¹.
B3 gave a Kd of 219 pM.
